From paper PMC9340540 (2022)

Molecular target: T1, CHN-1 (C. elegans)
T1 chain: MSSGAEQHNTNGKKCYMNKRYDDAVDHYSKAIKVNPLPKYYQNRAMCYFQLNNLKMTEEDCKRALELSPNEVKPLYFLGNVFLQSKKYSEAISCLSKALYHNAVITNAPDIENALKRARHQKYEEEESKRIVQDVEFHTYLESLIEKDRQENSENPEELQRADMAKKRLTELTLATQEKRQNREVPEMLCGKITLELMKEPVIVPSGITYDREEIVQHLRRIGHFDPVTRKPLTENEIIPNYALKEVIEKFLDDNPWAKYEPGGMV
Assay: ELISA

B1: UFD-2 (enzyme)
chain: MIEDEKAGLQPMDISDASVFFFQADVESKDFLTSLFDCEGKSDDRMLRYADAIIDVQNLNFDVSPQCLQSNIAEIITKFVLLSQDGSRRGLSRSFNFIDPDIIAGCREEDAIEFLLINFVRCHHELGKSGTSNCYKKTLESTRKAVFSVFVMIQRGYLESQLRSQHASLVFTKRLLEDTVSNVFLRTLVEYLASTDECDEDAITETFNPIFGILRSGIICQRFEDNKDEIVRQILRVMNLLLSIRLPSNGPRPLSNLLVNREDFLPTPSEKIQGREFGLMSFLGPFFSYGLESSARRPNHRVFVDCEEDARKYDGSVNTEQKLYFQRMDPIRTMLHQLMLPLASDQGSRNKTLRWIATIISTNDIRTRSHYDPSDVLCDHYMTNFLSVMYMFSEKIDLSKIIVDYPFLPSSLINISKETRLKMDESGAVAFASQFADRPDEYHFSTVCFFLTIAAQRLVIPPLMNQISEYSRHLKELKHKINALKEKLNTVSGFERAEVEKKLNYETEHWKLMSRHLLCVKTQAQDPALMASSMDFVDKQMKFILNLLCDNLDLLGDDSQLPTEVSQMFCALPEYFLEDALDFYIFAISNGMKLLMERNADWISRLTVLFTQYHYIKSPFLVSKLVRVLSSIQPPLWFNVVRLRMAQENLLMCMIKFYSDFEDNGDFYEKFNVRGNIQYMLEKMEEDMFYKGKFMDMARECGAEFIRFVNMVINDATWCIDESLSGLKSIHDVEKKMANKVEWDNTDQEIRNQDLGVYEEAKRKVKGWLGTAKSNLKLLLSITVNSPEPFRTPVLGERLAAMLNHNLSQLIGSKASELKVKDPRSYGWEPREFVSLLISIYLKLNMPAFVKYIAYDERTYSPEFFHNAIECMRKNSIVGFSQLESFEHLAEDVKKEYEAKAELEEEYDDVPEEFKDPIMDAIMVDPVKLPSGHVMDRAVIERHLLSTPNNPFNRAPLSHNELSPDSELKAKIQEWICQKRNSKK
- Kd: 37.8 nM

B2: HSP-1::6xHis (natural protein)
chain: not shown
- Kd: 12.2 nM
